Source: patent publication US20080131510

Assays:
[1] = system: Lys*-Ala-Gly-Leu-Leu-Cys (SEQ ID NO:32)
[2] = system: Lys*-Gly-Leu-Cys (SEQ ID NO:33)
[3] = system: Lys*-Pro-Ala-Gly-Leu-Leu-Gly-Cys (SEQ ID NO:2), pendant in PEG(8000)DA hydrogel and complexed with Pt
[4] = system: Lys*-Pro-Ala-Gly-Leu-Leu-Gly-Cys (SEQ ID NO:2)
[5] = system: Lys*-Ala-Gly-Leu-Leu-Cys (SEQ ID NO:32); test: peptide cleavage kinetics by HPLC, 10 nM activated MMP; the filing calls Km 'affinity or binding strength'
[6] = system: Lys*-Gly-Leu-Cys (SEQ ID NO:33); test: as above
[7] = system: Lys*-Pro-Ala-Gly-Leu-Leu-Gly-Cys (SEQ ID NO:2); test: as above

Sequence of matrix metalloprotease-9 (MMP-9), activated (chain, as listed by the source): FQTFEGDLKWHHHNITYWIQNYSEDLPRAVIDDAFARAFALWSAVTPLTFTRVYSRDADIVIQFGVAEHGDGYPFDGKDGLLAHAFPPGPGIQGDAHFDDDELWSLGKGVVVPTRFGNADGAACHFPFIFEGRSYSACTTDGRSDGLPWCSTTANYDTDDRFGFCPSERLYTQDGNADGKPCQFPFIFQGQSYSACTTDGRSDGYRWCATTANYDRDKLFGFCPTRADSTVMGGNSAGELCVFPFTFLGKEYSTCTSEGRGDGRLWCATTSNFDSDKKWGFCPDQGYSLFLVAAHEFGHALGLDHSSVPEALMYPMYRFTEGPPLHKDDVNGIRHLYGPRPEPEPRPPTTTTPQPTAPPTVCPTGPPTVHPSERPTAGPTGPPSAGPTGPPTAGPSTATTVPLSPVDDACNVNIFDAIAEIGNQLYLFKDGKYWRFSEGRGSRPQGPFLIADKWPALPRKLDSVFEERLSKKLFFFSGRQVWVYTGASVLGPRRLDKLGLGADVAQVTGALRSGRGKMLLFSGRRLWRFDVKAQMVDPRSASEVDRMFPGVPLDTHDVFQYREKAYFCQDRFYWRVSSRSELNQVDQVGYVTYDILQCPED

## matrix metalloprotease-9 (MMP-9), activated
[1]
  Kcat/Km: 252 M⁻¹ s⁻¹
  Vmax: 9.9e-10 M/s
  kcat: 0.04 s⁻¹
[2]
  Kcat/Km: 358 M⁻¹ s⁻¹
  Vmax: 5.3e-09 M/s
  kcat: 0.21 s⁻¹
[3]
  release of cleaved fragment from the PEG(8000)DA hydrogels: the addition of MMP-2 and MMP-9 showed a significantly higher release of cleaved fragment from the PEG(8000)DA hydrogels compared to the control
[4]
  Kcat/Km: 24000 M⁻¹ s⁻¹
  Vmax: 2.4e-07 M/s
  kcat: 9.6 s⁻¹
[5]
  Km: 160 µM
[6]
  Km: 600 µM
[7]
  Km: 400 µM
